The source of these data is patent publication US20230057461A1 (US Dept. of Health and Human Services, published 2023).

In this test the target is T1, Rab escort protein REP-1 (UniProt P24386 1-653).
T1 construct: Endogenous protein detected by Western blot (Abcam cat# 134964)
T1 sequence (looked up): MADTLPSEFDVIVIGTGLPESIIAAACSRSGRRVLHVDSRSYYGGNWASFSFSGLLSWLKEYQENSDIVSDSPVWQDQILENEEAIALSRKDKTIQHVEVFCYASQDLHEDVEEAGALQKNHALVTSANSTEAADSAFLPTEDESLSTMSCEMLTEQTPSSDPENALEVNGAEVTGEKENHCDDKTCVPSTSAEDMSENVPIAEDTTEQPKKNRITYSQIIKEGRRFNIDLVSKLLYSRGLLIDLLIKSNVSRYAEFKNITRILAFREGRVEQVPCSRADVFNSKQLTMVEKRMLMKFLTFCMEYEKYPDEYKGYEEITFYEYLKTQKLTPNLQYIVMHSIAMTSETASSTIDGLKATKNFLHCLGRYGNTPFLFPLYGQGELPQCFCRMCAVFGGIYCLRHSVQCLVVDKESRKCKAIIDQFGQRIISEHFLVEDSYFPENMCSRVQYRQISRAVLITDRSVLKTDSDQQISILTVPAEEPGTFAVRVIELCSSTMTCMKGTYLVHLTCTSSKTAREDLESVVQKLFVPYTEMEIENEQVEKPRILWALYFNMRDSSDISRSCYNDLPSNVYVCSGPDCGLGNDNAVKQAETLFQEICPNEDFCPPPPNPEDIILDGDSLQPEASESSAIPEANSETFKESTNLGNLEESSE
The test can be described thus: co-immunoprecipitation of GFP-Rab13 with GFP-Trap beads from MDA-MB-231 lysates, Western blot. On the procedure: For immunoprecipitations, cells were lysed with a buffer containing 50mM Tris pH 7.4, 1% NP-40, 150mM NaCl, 10mM MgC12, 10% glycerol and a cocktail of protease and phosphatase inhibitors (Thermo Fischer Scientific, cat# 1861281). Lysates were cleared by centrifugation and mixed with GFP-Trap Magnetic Agarose beads (Chromotek, cat# gtma-10) for 1.5 h, at 4° C. Immobilized complexes were eluted with Laemmli's buffer and analyzed by SDS-PAGE and immunoblotting.

B1: GFP-Rab13 (N-terminally GFP-tagged human Rab13) (other, UniProt P51153 1-203, looked up, not shown: large carriers)
chain: MAKAYDHLFKLLLIGDSGVGKTCLIIRFAEDNFNNTYISTIGIDFKIRTVDIEGKKIKLQVWDTAGQERFKTITTAYYRGAMGIILVYDITDEKSFENIQNWMKSIKENASAGVERLLLGNKCDMEAKRKVQKEQADKLAREHGIRFFETSAKSSMNVDEAFSSLARDILLKSGGRRSGNGNKPPSTDLKTCDKKNTNKCSLG
notes: Stably expressed in MDA-MB-231 cells from constructs with the wild type or the delta-PMO Rab13 3'UTR; the encoded protein is the same; Assayed from cell lysates; also called exogenous GFP-Rab13; exogenous Rab13
For B1, the binding result is “binds”.
